Source: patent US20230312722A1 (NONA BIOSCIENCES SUZHOU, published 2023)

T1: human B7H4 on the cell surface (human, UniProt Q7Z7D3 25-282)
T1 construct: whole, on cells; also called CHOK1/hu B7H4; B7H4 on SK-BR-3
T1 sequence (looked up): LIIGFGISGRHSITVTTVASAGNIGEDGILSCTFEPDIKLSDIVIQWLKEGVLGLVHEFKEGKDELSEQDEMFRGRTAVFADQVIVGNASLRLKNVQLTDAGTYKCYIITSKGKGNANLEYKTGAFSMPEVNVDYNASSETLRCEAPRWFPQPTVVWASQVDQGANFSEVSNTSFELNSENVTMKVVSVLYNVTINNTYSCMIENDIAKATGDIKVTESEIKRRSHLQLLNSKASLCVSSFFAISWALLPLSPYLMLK

T2: human B7-H4 (recombinant protein of the BLI affinity assay, Example 7.2) (human, UniProt Q7Z7D3 29-258, limits assumed)
T2 construct: also called human B7H4 protein
T2 sequence (looked up): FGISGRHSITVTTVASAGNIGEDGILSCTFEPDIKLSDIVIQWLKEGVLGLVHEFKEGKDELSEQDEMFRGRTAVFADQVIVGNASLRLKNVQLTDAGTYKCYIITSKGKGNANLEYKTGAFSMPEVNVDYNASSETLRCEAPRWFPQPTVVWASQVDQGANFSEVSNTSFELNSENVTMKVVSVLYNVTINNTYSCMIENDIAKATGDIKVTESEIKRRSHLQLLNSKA

T3: mouse B7H4 on the cell surface (mouse, UniProt Q7TSP5 25-257)
T3 construct: whole, on cells; also called CHOK1/m B7H4
T3 sequence (looked up): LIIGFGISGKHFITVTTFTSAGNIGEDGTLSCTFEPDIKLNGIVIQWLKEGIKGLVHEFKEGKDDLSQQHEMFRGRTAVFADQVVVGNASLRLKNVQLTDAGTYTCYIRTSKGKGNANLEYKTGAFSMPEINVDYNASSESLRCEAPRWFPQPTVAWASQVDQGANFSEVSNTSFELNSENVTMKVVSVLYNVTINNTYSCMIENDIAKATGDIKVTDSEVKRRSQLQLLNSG

T4: cynomolgus monkey B7H4 on the cell surface (cynomolgus monkey, UniProt A0A2K5U6P5 25-282)
T4 construct: whole, on cells; also called CHOK1/cyno B7H4
T4 sequence: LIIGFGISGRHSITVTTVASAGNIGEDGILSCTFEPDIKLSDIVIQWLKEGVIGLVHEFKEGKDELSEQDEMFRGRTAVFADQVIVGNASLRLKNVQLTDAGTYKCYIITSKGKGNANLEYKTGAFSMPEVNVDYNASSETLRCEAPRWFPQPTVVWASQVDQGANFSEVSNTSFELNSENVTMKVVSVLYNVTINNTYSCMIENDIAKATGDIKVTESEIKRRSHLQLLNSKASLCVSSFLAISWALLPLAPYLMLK

B1: PR003369 (antibody, human IgG1, kappa, V domains shown)
VH: QVQLVESGGGVVQPGRSLRLSCAASGFTFRSFGMHWVRQAPGKGLEWVAVISYDASNEYYADSVKGRFIISRDNSKDTLYLQMNSLRAGDTAVYYCAKGGALRWYFAYWGQGTLVTVSS
VL: EIVMTQSPATLSVSPGERATLSCRASQSISSNLGWYQQKPGQAPRLLIYGASTRATGIPARFSGSGSGTEFTLTISSLQSEDFAVYYCQQYRSWPPLTFGGGTKVEIKR
notes: L: N92R; Fc S239D, I332E), human IgG1
B2: PR002038 (antibody, human IgG1, kappa, V domains shown)
VH: QVQLVQSGAEVKKPGSSMRVSCKASEDTFSSYAISWVRQAPGQGLEWMGGTAPIFGTTNYAQKFQGRVTITADKSTSTAYMELSSLRSEDTAVYYCARGGPYFDYWGQGTLVTVSS
VL: DIQLTQSPATLSVSPGERATLSCRASQSVSSNLAWYQQKPGQAPRLLIYGDYIRATGIPARFSGSGSGTEFTLTISSLQSEDIATYYCQQYVDLPITFGQGTRLEIKR
notes: Initial antibody, human IgG1; also called 1025_B-2A1

Columns and labels:
[1] = molecular target: T1, human B7H4 on the cell surface; assay: FACS on MDA-MB-468 cells; in the drawn table the number stands under the head 'EC50 (nM)' (the two heads are interchanged)
[2] = molecular target: T1, human B7H4 on the cell surface; assay: FACS, tumor cells (table head: SK-BR-3)
Protocol: (§1) This example is intended to investigate the in vitro binding activity of anti-human B7H4 H2L2 monoclonal antibody to human/cynomolgus monkey/mouse B7H4. Antibody binding experiments at the cellular level were performed using CHOK1 cell line overexpressing human B7H4 (CHOK1/hu B7H4, Harbour BioMed), CHOK1 cell line overexpressing cynomolgus monkey B7H4 (CHOK1/cyno B7H4, Harbour BioMed), CHOK1 cell line overexpressing mouse B7H4 (CHOK1/m B7H4, Harbour BioMed) and SK-BR-3 cell line (ATCC® HTB-30) highly expressing human B7H4. Briefly, CHOK1/hu B7H4 cells, CHOK1/cyno B7H4 cells, CHOK1/m B7H4 cells or SK-BR-3 cells were digested and resuspended with PBS containing 2% BSA. The cell density was adjusted to 1×10⁶ cells/mL. The cells were seeded in a 96-well V-bottom plate (Corning, #3894) at 100 μL/well, followed by the addition of test antibodies diluted in a 3-fold concentration gradient of 2 times the final concentration, each at 100 μL/well. The cells were incubated at 4° C. for 2 h away from light. Thereafter, the cells in each well were rinsed twice with 100 μL of pre-cooled PBS containing 2% BSA, and centrifuged at 500 g at 4° C. for 5 min, and then the supernatant was discarded. […] Finally, the cells in each well were resuspended with 200 μL of pre-cooled PBS containing 2% BSA, and the fluorescence signal values were read using an ACEA Novocyte3000 flow cytometer.

[3] = molecular target: T1, human B7H4 on the cell surface; assay: FACS on MDA-MB-468 cells; in the drawn table the number stands under the head 'Maximum MFI' (the two heads are interchanged); the head says nM, the axis of the curve µg/mL
[4] = molecular target: T1, human B7H4 on the cell surface; assay: FACS on MDA-MB-468 cells (head of the figure); the same number stands in Table 2-3 of the text under the head SK-BR-3
[5] = molecular target: T1, human B7H4 on the cell surface; assay: FACS on MDA-MB-468 cells
[6] = molecular target: T2, human B7-H4 (recombinant protein of the …); assay: BLI (Octet Red 96e), antibody captured on AHC sensor, human B7-H4 in solution, 1:1 global fit
Protocol: When the affinity of the antigen for the antibody was determined, the rotation speed of the sensor was set at 1000 rpm/min. The AHC sensors (Fortebio, #18-5060) placed in a row were equilibrated for 10 minutes in a test buffer before the AHC sensors were used to capture the B7-H4 antibodies at a capture height of 0.7 nm; the AHC sensors, after equilibrated in the buffer for 120 s, bound to 2-fold serially diluted human B7-H4 (concentrations were 50 nM-3.125 nM and 0 nM) for 180 s, followed by dissociation for 300 s. Finally, the AHC sensor was immersed in a 10 mM glycine-hydrochloric acid solution at pH 1.5 for regeneration to elute the proteins bound to the sensor.
When data analysis was performed using Octet Data Analysis software (Fortebio, version 11.0), 0 nM was taken as a reference well, and reference subtraction was performed; the “1:1 Global fitting” method was selected to fit the data, and the kinetics parameters of the binding of antigens to antigen-binding proteins were calculated, with kₒₙ (1/Ms) values, kdis (1/s) values and KD(M) values obtained (see Table 7-2).

[7] = molecular target: T3, mouse B7H4 on the cell surface; assay: FACS, CHOK1/m B7H4 cells (FIG. 5)
Protocol: as §1

[8] = molecular target: T1, human B7H4 on the cell surface; assay: FACS, CHOK1/hu B7H4 cells
Protocol: (§2) This example is intended to investigate the in vitro binding activity of anti-human B7H4 H2L2 monoclonal antibody to human/cynomolgus monkey/mouse B7H4. Antibody binding experiments at the cellular level were performed using CHOK1 cell line overexpressing human B7H4 (CHOK1/hu B7H4, Harbour BioMed), CHOK1 cell line overexpressing cynomolgus monkey B7H4 (CHOK1/cyno B7H4, Harbour BioMed), CHOK1 cell line overexpressing mouse B7H4 (CHOK1/m B7H4, Harbour BioMed) and SK-BR-3 cell line (ATCC® HTB-30) highly expressing human B7H4. Briefly, CHOK1/hu B7H4 cells, CHOK1/cyno B7H4 cells, CHOK1/m B7H4 cells or SK-BR-3 cells were digested and resuspended with PBS containing 2% BSA. The cell density was adjusted to 1×10⁶ cells/mL. The cells were seeded in a 96-well V-bottom plate (Corning, #3894) at 100 μL/well, followed by the addition of test antibodies diluted in a 3-fold concentration gradient of 2 times the final concentration, each at 100 μL/well. The cells were incubated at 4° C. for 2 h away from light. Thereafter, the cells in each well were rinsed twice with 100 μL of pre-cooled PBS containing 2% BSA, and centrifuged at 500 g at 4° C. for 5 min, and then the supernatant was discarded. Then 100 μL of a fluorescent secondary antibody (Alexa Fluor 488-conjugated AffiniPure Goat Anti-Human IgG, Fcγ Fragment Specific, Jackson, #109-545-098, 1:500 diluted) was added to each well. The plate was incubated away from light at 4° C. for 1 h. The cells in each well were washed twice with 100 μL of pre-cooled PBS containing 2% BSA, and centrifuged at 500 g at 4° C. for 5 minutes, and then the supernatant was discarded. Finally, the cells in each well were resuspended with 200 μL of pre-cooled PBS containing 2% BSA, and the fluorescence signal values were read using an ACEA Novocyte3000 flow cytometer.

[9] = molecular target: T4, cynomolgus monkey B7H4 on the cell …; assay: FACS, CHOK1/cyno B7H4 cells
Protocol: as §2

[10] = molecular target: T1, human B7H4 on the cell surface; assay: FACS, SK-BR-3 cells
Protocol: as §2

| Binder | Maximum MFI [1] | EC50 [2] | EC50 [3] | EC50 [4] | EC50 (read off the curve) [5] | Kd [6] | koff [6] | kon [6] | binding result [7] | EC50 [8] | Maximum MFI [8] | EC50 [9] | Maximum MFI [9] | EC50 [10] | Maximum MFI [10] |
| --- | --- | --- | --- | --- | --- | --- | --- | --- | --- | --- | --- | --- | --- | --- | --- |
| B1 | 204000 | 0.434 nM | 0.0508 nM | 0.434 nM | ~0.05 µg/mL | 1.39 nM | 0.000394 s⁻¹ | 283000 M⁻¹ s⁻¹ |  |  |  |  |  |  |  |
| B2 |  |  |  |  |  |  |  |  | no binding | 20 nM | 1.15e+06 MFI | 24.8 nM | 677000 MFI | 85.6 nM | 82800 MFI |
